Results: patent US20240247301A1, “DIAGNOSTIC ASSAY FOR CLASSIC INBORN GALACTOSEMIA” (Ohio State Innovation Foundation, priority 2022, published 2024)

How the values were obtained:
[1] = YihX kinetic studies (malachite green phosphate assay); format: biochemical, Salmonella; details: Glc 1-P versus 6-P-F-Asp
Description: Top panel reproduced from Monroy, et al., 2013.
The Km and kcat values are listed here with their respective curve-fit errors (see summary in Table 4).
Salmonella YihX was purified after overexpression in E. coli BL21 (DE3) pLysS cells. His6-YihX was purified under denaturing conditions using immobilized metal-affinity chromatography. Following purification, YihX was refolded by stepdown dialysis to remove the denaturant. […] YihX offers the basis for a simpler and more sensitive assay to diagnose classic galactosemia.

[2] = YidA substrate-specificity test, initial velocity for Glc-1-P versus Gal-1-P; format: biochemical, Salmonella; details: 3 mM Glc-1-P or 3 mM Gal-1-P, 3 mM MgCl2
Description: FIGS. 1A-B show substrate-recognition bias of YidA for Glc-1-P over Gal-1P. […] The data represent mean±standard error determined from two independent trials. […] The Km and kcat values listed represent the mean±standard error from two independent trials.
Nearly homogeneous recombinant Salmonella YidA by overexpressing it in E. coli SixPack cells were obtained (Lipinszki et al. 2018) (FIG. 3A). N-terminal fusions with a small ubiquitin-like modifier (SUMO) domain were engineered to enhance solubility (Marblestone et al. 2006) and a His6 tag to facilitate affinity purification (FIG. 3A). To measure the phosphatase activity of YidA, malachite green, a cationic dye that forms with free orthophosphate and molybdate a green-colored complex (Abs620) was used; this assay can measure nanomolar concentrations of orthophosphate (FIG. 4). Since YidA is a Mg^2+-dependent phosphatase, its activity with Glc-1-P in the presence of 0-5 mM MgCl2 was first tested and determined that 3 mM MgCl2 was optimal (FIG. 5).

[3] = earlier qualitative observation (Kuznetsova et al. 2006); cited from earlier work
[4] = Duarte GalT-YidA coupled assay (malachite green); format: biochemical; details: recombinant Duarte GalT, substrate Gal-1-P
Description: The assay contained 25 mM 4-(2-hydroxyethyl)-1-piperazineethanesulfonic acid (HEPES) (pH 8.0), 3 mM MgCl2, 2 mM DTT, 1 mM UDP-glucose (Sigma-Aldrich), 3 mM YidA, and varying amounts of His6-tagged Duarte GalT: 0.25 mM GalT for ≤0.1-mM Gal-1P, and 0.1 mM GalT for ≥0.1-mM Gal-1P (Table 3). […] These 2-μL aliquots were added to a 384-well plate which were pre-dispensed to test wells 18 μL of water and 5 μL of malachite green reagent. […] These specific time courses (using four time points; Table 3) and the appropriate dilutions were performed to maintain product formation in the linear range. To determine the Km and kcat values, the initial velocity calculated at each substrate concentration was subject to the Michaelis-Menten curve-fitting option in Kaleidagraph (Synergy Software).

[5] = Duarte GalT variant; cited from earlier work

B1: YihX: recombinant Salmonella HAD-like sugar-phosphate phosphatase, overexpressed in E. coli BL21 (DE3) pLysS cells and refolded (protein, listed as Salmonella typhimurium)
chain: MLYIFDLGNVIVDIDFNRVLGVWSDLSRVPLASLKQKFTMGETFHQHERGEITDEAFAEAFCHEMALSLSYEQFAHGWQAVFVGLRPEVIAIMHKLREQGHRVVVLSNTNRLHTHFWPEEYPEVRAAADHIYLSQDLGMRKPEARIYQHVLQKEGFSAADAVFFDDNADNIEGANQLGITSILVKDKATIPDYFAKLLC
modifications: Description of sequence: YihX
In the case of B1, the “substrate hydrolysis (qualitative)” value [1] is reported as “hydrolyzes glucose 1-phosphate (Glc 1-P) but not 6-P-F-Asp”.

B2: YidA: recombinant Salmonella sugar-phosphate phosphatase of the HAD superfamily, overexpressed in E. coli SixPack cells; SUMO tag removed unless stated (protein, listed as Salmonella typhimurium)
chain: MAIKLIAIDMDGTLLLPDHTISPAVKNAIAAAREKGVNVVLTTGRPYAGVHSYLKELHMEQPGDYCITYNGALVQKAGDGSTVAQTALSYDDYRYLEKLSREVGSHFHALDRNTLYTANRDISYYTVHESYVATIPLVFCEAEKMDPNTQFLKVMMIDEPAVLDRAIARIPAEVKEKYTVLKSAPYFLEILDKRVNKGTGVKSLVEALGIKPEEVMAIGDQENDIAMIEYAGMGVAMDNAIPSVKEVANFVTKSNLEDGVAWAIEKFVLNPDHSSGHFPAR
modifications: Description of sequence: YidA
notes: recombinant Salmonella sugar-phosphate phosphatase of the HAD superfamily, overexpressed in E. coli SixPack cells; SUMO tag removed unless stated
With B2 the “preference for Glc-1-P over Gal-1-P (initial velocity)” value [2] was ≥ 40 fold.

B3: E. coli YidA: E. coli YidA phosphatase documented in a previous study (Kuznetsova et al. 2006) (protein, UniProt P0A8Y5 1-270, looked up)
Sugar phosphatase YidA: MAIKLIAIDMDGTLLLPDHTISPAVKNAIAAARARGVNVVLTTGRPYAGVHNYLKELHMEQPGDYCITYNGALVQKAADGSTVAQTALSYDDYRFLEKLSREVGSHFHALDRTTLYTANRDISYYTVHESFVATIPLVFCEAEKMDPNTQFLKVMMIDEPAILDQAIARIPQEVKEKYTVLKSAPYFLEILDKRVNKGTGVKSLADVLGIKPEEIMAIGDQENDIAMIEYAGVGVAMDNAIPSVKEVANFVTKSNLEDGVAFAIEKYVLN
For B3, the “dephosphorylation of Gal-1-P compared to Glc-1-P (qualitative)” value [3] is given as “negligible dephosphorylation of Gal-1-P compared to Glc-1-P”.

B4: Duarte GalT: recombinant His6-tagged Duarte variant of galactose-1-phosphate uridylyl transferase, clone from Addgene (GALTA-c001) (protein, UniProt P07902 1-379, looked up, variant N314D)
Galactose-1-phosphate …: MSRSGTDPQQRQQASEADAAAATFRANDHQHIRYNPLQDEWVLVSAHRMKRPWQGQVEPQLLKTVPRHDPLNPLCPGAIRANGEVNPQYDSTFLFDNDFPALQPDAPSPGPSDHPLFQAKSARGVCKVMCFHPWSDVTLPLMSVPEIRAVVDAWASVTEELGAQYPWVQIFENKGAMMGCSNPHPHCQVWASSFLPDIAQREERSQQAYKSQHGEPLLMEYSRQELLRKERLVLTSEHWLVLVPFWATWPYQTLLLPRRHVRRLPELTPAERDDLASIMKKLLTKYDNLFETSFPYSMGWHGAPTGSEAGANWDHWQLHAHYYPPLLRSATVRKFMVGYEMLAQAQRDLTPEQAAERLRALPEVHYHLGQKDRETATIA
In the case of B4, the “increase in kcat/Km, YidA-based assay versus PGM-G6PDH coupled assay” value [4] is given as ~2.5 fold and the “activity relative to wild-type GalT” value [5] is given as ~25%.
